Source: patent US20040233833A1, “Methods for identifying compounds with thrapeutic potential for treatment of central Neurodegenerative diseases resulting from abnormal protein or peptide accumulation” (priority 2001, published 2004)
Values joined by “and” are separate entries in the source; they are usually repeats but may differ in a detail not shown here. Equal entries are not always repeated.

Columns and labels:
proteasomes [1] = target: T1, proteasomes (Homo sapiens, UniProt P28072+P28074+Q99436); assay: Proteasomal degradation of fluorescein-labeled polyQ peptides (molecular exclusion chromatography); format: biochemical; conditions: for % Degraded, substrate F1-EPQPQ / % Degraded, substrate F1-KSQPQ / % Degraded, substrate F1-QHQ / % Degraded, substrate F1-QPQ / % Degraded, substrate F1-QQQ: proteasome + activator, 5 hr incubation
Method: The following peptides were synthesized using routine peptide synthesis:
Each peptide was incubated for 5 hr with proteasomes alone, proteasomes+REGγ, proteasome+REGγ(K188E) or proteasomes+REGα/β. Degradation was assayed by molecular exclusion chromatography using fluorescein as a signal (see FIG. 2). The degradation products were identified by HPLC-MS (FIG. 3). […] By contrast, in the presence of REGγ(K188E) the various polyQ peptides were degraded 5 to 10-fold faster.

[2] = target: T2, Human red blood cell proteasomes (Homo sapiens, UniProt P28072+P28074+Q99436); assay: Activation of fluorogenic peptide hydrolysis by the proteasome in the presence of REG variants; format: biochemical; conditions: for Stimulation of cleavage (x-fold) LLE: substrate LLE-βNA (PGPH site); for Stimulation of cleavage (x-fold) LLVY: substrate LLVY-MCA (chymotrypsin-like site); for Stimulation of cleavage (x-fold) LRR: substrate LRR-MCA (trypsin-like site)
T2 construct: Human red blood cell proteasomes; from tissue; host or cells: human red blood cells
Method: Human red blood cell proteasomes (170 ng) were mixed with increasing amounts of purified REG variants. The reactions were started by adding 50 μl of 200 μMscu-LLVY-MCA, Boc-LRR-MCA, or Boc-LLE-βNA in 10 mM Tris, pH 7.5. After a 10 min incubation, the reaction was quenched with 200μl of cold 100% ethanol, and the released MCA or βNA ws measured fluometrically. Each data point represents the mean of three measurements from a single experiment. […] REGα (▪), REGγ(□), REGγ(K188E) or REGγ(K188D) (●), REGγ(K188H) (∘), REGγ(K188Q) or REGγ(K188N) (Δ), REGγ(K188A) (♦). The data for REGγ(K188E) and REGγ(K188D) and for REGγ(K188Q) and REGγ(K188N) were combined since their activities were indistinguishable.
Because each positive variant identified in the previous example included a mutation at Lys188, site-directed mutagenesis was used to generate a series of amino acid substitutions at this residue. Twelve mutants were constructed in which Lys188 of REGγ was changed to Ala, Arg, Asn, Asp, Cys, Gln, Glu, His, Ile, Phe, Pro, or Ser. Wild-type REGγ and the Lys 188 variants were expressed in E. coli, purified, and the activation specificity of each protein was measured using the diagnostic peptides LLVY (SEQ ID NO:1)-MCA, LRR-MCA, and LLE-βNA. Except for the K188R variant, all Lys 188 mutants stimulated the hydrolysis of LRR-MCA by the proteasome to the same extent or slightly better than wild-type REGγ. Substitution of negatively-charged Glu or Asp for the positively-charged Lys188 produced mutants with activation properties almost identical to REGα.
To determine the degree to which the activation specificity of REGγ(K188E/D) variants matches that of REGα, proteasomal cleavage of a series of fluorogenic peptides was measured in the presence of each activator.

proteasome [3] = target: T3, proteasome (Homo sapiens, UniProt P28072+P28074+Q99436); assay: REGα(N146Y)/REGβ(N135Y) competition assay for relative proteasome affinity; format: binding; conditions: in terms of REGα(N146Y)/REGβ(N135Y) competition; wild-type REGγ 100
Source text: As a measure of the relative affinities of REGγ and the REGγLys188 mutants for the proteasome, a competition assay was used. See Li et al. (2000), The Proteasome Activator 11S REG or PA28: Chimeras Implicate Carboxyl-Terminal Sequences in Oligomerization and Proteasome Binding But Not in the Activation of Specific Proteasome Catalytic Subunits. J. Mol. Biol. 299:641-54. All REGγLys188 mutants were relatively resistant to REGα(N146Y)/REGβ(N135Y) competition with apparent proteasome affinities varying from 40% to 90% that of wild-type REGγ.

proteasome [4] = target: T3, proteasome; assay: Proteasomal hydrolysis of natural peptides P21 and BBC1 (HPLC); format: biochemical; conditions: 21-residue peptide P21; result in words
Method: Proteasomal hydrolysis of a 21 -residue peptide (P21) and a 49-residue peptide (BBC1) were prepared as described by Zhang et al. (1998), Proteasome Activation by REG Molecules Lacking Homolog-specific Inserts, J. Biol. Chem. 273:9501-09. Digestion products were applied to a C18 HPLC column and separated with a gradient of 0-45% acetonitrile containing 0.1% trifluoroacetic acid. To identify the products derived from P21, fractions were collected manually, concentrated, and subjected to mass spectrometry.

[5] = Heptamer stability on rechromatography (Superdex 200 size exclusion column); format: physicochemical; conditions: for Percent heptamer: after second gel filtration
Source text: To examine the effect of Lys188 substitution on REGγ heptamer stability, the wildtype and Lys 188 variant heptamers were rechromatographed on the Superdex 200 (26/60) size exclusion column used for purification. […] Replacement of Lys 188 by Pro or Phe severely affected the stability of REGγ heptamer.

[6] = target: T2, Human red blood cell proteasomes; assay: Activation of fluorogenic peptide hydrolysis by the proteasome in the presence of REG variants; format: biochemical; conditions: for Stimulation of cleavage (x-fold) AAF-MCA: substrate AAF-MCA; for Stimulation of cleavage (x-fold) DEVD-MCA: substrate DEVD(SEQ ID NO: 8)-MCA; for Stimulation of cleavage (x-fold) FSR-MCA: substrate FSR-MCA; for Stimulation of cleavage (x-fold) IEGR-MCA: substrate IEGR(SEQ ID NO: 5)-MCA; for Stimulation of cleavage (x-fold) IETD-MCA: substrate IETD(SEQ ID NO: 6)-MCA; for Stimulation of cleavage (x-fold) LGHD-MCA: substrate LGHD(SEQ ID NO: 7)-MCA; for Stimulation of cleavage (x-fold) LY-MCA: substrate LY-MCA; for Stimulation of cleavage (x-fold) VLK-MCA: substrate VLK-MCA; for Stimulation of cleavage (x-fold) YVAD-MCA: substrate YVAD(SEQ ID NO: 9)-MCA
proteasomes [7] = target: T1, proteasomes; assay: Proteasomal degradation of the fluorescein-tagged C31 peptide of APP; format: biochemical; conditions: result in words
Method: A 31-residue C-terminal peptide (C31) of APP, the transmembrane protein that gives rise to amyloid plaque forming Aβ peptides characteristic of Alzheimer's disease, was synthesized using routine peptide synthesis. A fluorescein tag was added to the peptide. C31 peptide is cytotoxic. See Lu et al. (2000), a Second Cytotoxic Proteolytic Peptide Derived from Amyloid Beta-Protein Precursor, Nat. Med. 6:397-404.
The C31 was incubated with proteasomes alone, proteasomes+REGγ, proteasome+REGγ(K188E) or proteasomes+REGα/β, and degradation was assayed as described in Example 8.

[8] = target: proteasome β subunits (T, CT/PGPH) (Homo sapiens, UniProt P28072+P28074+Q99436); assay: Affinity labeling of proteasome β subunits with 125I-YL3-VS in the presence of REGs; format: biochemical; conditions: mean±S.D.
Source text: To obtain estimates of substrate access to the proteasome's central chamber in the presence of REGγ and REGγ(K188E), the active site-directed probe, ^125I-YL3-VS, which covalently modifies all three active β-subunits in an activity dependent manner, was used. […] The phosphoimages show increased labeling of CT/PGPH and T subunits in the presence of REGγ and REGγ(K188E). The data further reveal that REGγ increased the rate of T-subunit labeling 4.7±2.6 (mean±S.D.) fold and the rate of CT/PGPH labeling 4.4±1.7 (mean±S.D.) fold over that seen with proteasome alone. Stimulation by the mutant REGγ(K188E) was greater, being 10.8±4.9 (mean±S.D.) fold for the T-subunit and 11.9±4.8 (mean±S.D.) fold for the CT/PGPH subunit. […] The finding that REGγ increased labeling of the CT and PGPH subunits was unexpected as the wild type activator suppresses hydrolysis of the CT substrate sLLVY (SEQ ID NO:1)-MCA.

Row | Substance | % Degraded, substrate F1-EPQPQ (proteasomes [1]) [%] | % Degraded, substrate F1-KSQPQ (proteasomes [1]) [%] | % Degraded, substrate F1-QHQ (proteasomes [1]) [%] | % Degraded, substrate F1-QPQ (proteasomes [1]) [%] | % Degraded, substrate F1-QQQ (proteasomes [1]) [%] | Stimulation of cleavage (x-fold) LLE [2] [x-fold] | Stimulation of cleavage (x-fold) LLVY [2] [x-fold] | Stimulation of cleavage (x-fold) LRR [2] | Relative affinity for proteasome (proteasome [3]) | Hydrolysis of P21 by the proteasome (proteasome [4]) | Percent heptamer [5] | Stimulation of cleavage (x-fold) AAF-MCA [6] [x-fold] | Stimulation of cleavage (x-fold) DEVD-MCA [6] [x-fold] | Stimulation of cleavage (x-fold) FSR-MCA [6] [x-fold] | Stimulation of cleavage (x-fold) IEGR-MCA [6] [x-fold] | Stimulation of cleavage (x-fold) IETD-MCA [6] [x-fold] | Stimulation of cleavage (x-fold) LGHD-MCA [6] [x-fold] | Stimulation of cleavage (x-fold) LY-MCA [6] [x-fold] | Stimulation of cleavage (x-fold) VLK-MCA [6] [x-fold] | Stimulation of cleavage (x-fold) YVAD-MCA [6] [x-fold] | further results
1 | γK188E: mutant REGγ in which Lys188 was changed to Glu | 80 | 80 | 50 | 50 | >95 | 9 | 14 | 15 x-fold | 90 | markedly increased | 50% | 4 | 8 | 7 | 2 | 21 | 10 | 3 | 6 | 7 | Activation properties compared with REGα ([2]; small fluorogenic peptides, result in words): virtually identical to REGα; Heptamers dissociated during the second gel filtration ([5]; Superdex 200): More than half; Cleavage of peptides diagnostic for the CT-like or PGPH active sites ([6]; result in words): substantially more than REGγ; Degradation of C31 peptide by proteasomes (proteasomes [7]): extensively degraded; Increase in rate of CT/PGPH labeling over proteasome alone [8]: 11.9±4.8 fold; Increase in rate of T-subunit labeling over proteasome alone [8]: 10.8±4.9 fold
2 | REGα: 11S REG proteasome activator subunit closely related to REGβ and REGγ |  |  |  |  |  | 9 | 16 | 16 x-fold | 0 | markedly increased | ˜95% | 6 | 10 | 10 | 3 | 30 | 11 | 5 | 7 | 9 | 
3 | REGγ: wild-type 11S REG proteasome activator subunit, a homo-heptamer found principally in the nucleus | 5 | 15 | 5 | 5 | 15 | 0.6 | 0.4 | 12 x-fold and 11 x-fold | 100 | decreased | >95% | 1 | 2 | 7 | 1 | 1 | 1 | 2 | 5 | 0.9 | Degradation of polyQ peptides (proteasomes [1]; result in words): resistant to degradation; Percentage that remained heptamers on rechromatography ([5]; Superdex 200 second gel filtration): remained fully heptameric; Stimulation of cleavage of the LRR-MCA substrate ([6]; compared to the basal rate in the absence of REGγ (Example 10)): 10-20 fold; Proteasomal cleavage of sucLLVY-MCA ([6]; result in words): does not promote; Degradation of C31 peptide by proteasomes (proteasomes [7]): Only trace amounts; Increase in rate of CT/PGPH labeling over proteasome alone [8]: 4.4±1.7 fold; Increase in rate of T-subunit labeling over proteasome alone [8]: 4.7±2.6 fold
